In publication PMC405831 (Journal of Insect Science, 2002):

Molecular target: T1, Ecdysteroid receptor (EcR), ligand binding part (C-terminus of D- and E-domain) (UniProt P34021 400-655)
T1 sequence (looked up): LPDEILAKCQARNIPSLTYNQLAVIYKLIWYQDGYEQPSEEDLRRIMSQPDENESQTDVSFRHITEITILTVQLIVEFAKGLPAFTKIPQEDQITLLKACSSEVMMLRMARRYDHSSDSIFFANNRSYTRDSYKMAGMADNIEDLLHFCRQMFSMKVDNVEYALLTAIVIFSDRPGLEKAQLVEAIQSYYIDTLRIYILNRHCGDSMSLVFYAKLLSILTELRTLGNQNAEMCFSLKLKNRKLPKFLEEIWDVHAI
Experiment: native gel or EMSA

fold of the affinity constant of heterodimerization against homodimerization: ~10 fold
B1: Ultraspiracle (USP), ligand binding part (C-terminus of D- and E-domain) (domain or fragment, UniProt P20153 230-508, looked up)
chain: MTNSVSRDFSIERIIEAEQRAETQCGDRALTFLRVGPYSTVQPDYKGAVSALCQVVNKQLFQMVEYARMMPHFAQVPLDDQVILLKAAWIELLIANVAWCSIVSLDDGGAGGGGGGLGHDGSFERRSPGLQPQQLFLNQSFSYHRNSAIKAGVSAIFDRILSELSVKMKRLNLDRRELSCLKAIILYNPDIRGIKSRAEIEMCREKVYACLDEHCRLEHPGDDGRFAQLLLRLPALRSISLKCQDHLFLFRITSDRPLEELFLEQLEAPPPPGLAMKLE
